The values that follow come from patent US20170233497A1 (Genmab, published 2017).

Series [1] concerns the molecule itself. As to the kind of experiment: native mass spectrometry; monomer-dimer equilibrium of the hinge-less CH2-CH3 fragment (homodimer). On the procedure: (§1) To measure the effect of the above mentioned CH3 mutations on the strength of the CH3-CH3 interaction, fragments composed of only the CH2-CH3 domains were made. The lack of a hinge region in these fragments prevented covalent inter-heavy chain disulfide bonds. The fragments were analyzed by native mass spectrometry. Samples were buffer-exchanged to 100 mM ammonium acetate pH 7, using 10 kDa MWCO spin-filter columns. Aliquots (˜1 μL) of serial diluted samples (20 μM-25 nM; monomer equivalent) were loaded into gold-plated borosilicate capillaries for analysis on a LCT mass spectrometer (Waters). The monomer signal, Mₛ, was defined as the area of the monomer peaks as a fraction of the area of all peaks in the spectrum (Mₛ/(Mₛ+Dₛ) where Dₛ=the dimer signal). The concentration of monomer at equilibrium, [M]eq, was defined as Mₛ·[M]₀ where [M]₀ is the overall protein concentration in terms of monomer. The dimer concentration at equilibrium, [D]eq, was defined as ([M]₀−[M]eq)/2. The KD, was then extracted from the gradient of a plot of [D]eq versus [M]eq².

Series [2] concerns the molecule itself. As to the kind of experiment: native mass spectrometry; CH2-CH3 fragment homodimer. As for the experimental part: as §1, with “The” for “To measure the effect of the above mentioned CH3 mutations on the strength of the CH3-CH3 interaction, fragments composed of only the CH2-CH3 domains were made. The lack of a hinge region in these fragments prevented covalent inter-heavy chain disulfide bonds. The”
It is described in Example 21 that there is a specific range in the strength of the interaction of the CH3-CH3 homodimers that allows efficient Fab-arm-exchange. The strength of the interactions at the CH3 interface should be such that it is possible that both heavy chains in the parental antibodies (homodimers) dissociate in the Fab-arm-exchange reaction and that they subsequently associate in the heterodimerization reaction. To generate a stable heterodimer, the strength of the heterodimer interaction should be greater than the strength of the homodimer interaction, such that it favors heterodimerization over homodimerization. To confirm this, the strength of the CH3-CH3 interaction in the heterodimers was measured and compared to the strength in the homodimers. The KD of the CH2-CH3 fragments derived from IgG1-K409R, IgG1-F405L and IgG1-ITL homodimers were measured as described in Example 21. For the determination of the KD in heterodimers, CH2-CH3 domain fragments (G1-F405L and G1-ITL) were mixed with the IgG1Δhinge fragment of IgG1-7D8-K409R, which contain all antibody domains except the hinge. […] The fragments were mixed and analyzed after 24 hours by native mass spectrometry as described in Example 21. […]

Series [3] concerns the molecule itself. The series is described as follows: native mass spectrometry; KD compared to the wild type IgG1 CH2-CH3 fragment. As for the experimental part: as §1
Series [4] concerns the molecule itself. The series is described as follows: native mass spectrometry; KD compared to the wild type IgG4 CH2-CH3 fragment. As for the experimental part: as §1

B1: CH2-CH3 fragment of human IgG1 with K409R (other, UniProt P01857-1 224-330, looked up, name in EU numbering)
chain: GQPREPQVYTLPPSRDELTKNQVSLTCLVKGFYPSDIAVEWESNGQPENNYKTTPPVLDSDGSFFLYSRLTVDKSRWQQGNVFSCSVMHEALHNHYTQKSLSLSPGK
notes: range 341-447; As m1, with the mutation; also called G1-K409R; not shown: N-terminal 6 amino acid His tag
For orientation: Kd means the concentration at which binding is half-saturated. A high value points to weaker binding. B1: the Kd in series [1] and in series [2] was 110 nM throughout. The fold-difference in series [3] was determined as 0.03 fold.

B2: CH2-CH3 fragment of human IgG1 with F405L (other, UniProt P01857-1 224-330, looked up, name in EU numbering)
chain: GQPREPQVYTLPPSRDELTKNQVSLTCLVKGFYPSDIAVEWESNGQPENNYKTTPPVLDSDGSFLLYSKLTVDKSRWQQGNVFSCSVMHEALHNHYTQKSLSLSPGK
notes: range 341-447; As m1, with the mutation; also called G1-F405L; not shown: N-terminal 6 amino acid His tag
The protein B2 came in with a dissociation constant Kd in series [2] of 850 nM.

B3: CH2-CH3 fragment of human IgG4 with K370E (other, UniProt P01861-1 221-327, looked up, name in EU numbering)
chain: GQPREPQVYTLPPSQEEMTKNQVSLTCLVEGFYPSDIAVEWESNGQPENNYKTTPPVLDSDGSFFLYSRLTVDKSRWQEGNVFSCSVMHEALHNHYTQKSLSLSLGK
notes: range 341-447; As m7, with the mutation; also called G4-K370E; not shown: N-terminal 6 amino acid His tag
B3: binding in series [1] was put at a Kd of 2 nM. Further, the fold-difference in series [4] was 24 fold.

B4: CH2-CH3 fragment of human IgG4 with F405L (other, UniProt P01861-1 221-327, looked up, name in EU numbering)
chain: GQPREPQVYTLPPSQEEMTKNQVSLTCLVKGFYPSDIAVEWESNGQPENNYKTTPPVLDSDGSFLLYSRLTVDKSRWQEGNVFSCSVMHEALHNHYTQKSLSLSLGK
notes: range 341-447; As m7, with the mutation; also called G4-F405L; not shown: N-terminal 6 amino acid His tag
For B4, the Kd in series [1] was found to be 25000 nM. Further, the fold-difference in series [4] came to 0.0019 fold.

B5: CH2-CH3 fragment of human IgG4 with E357T (other, UniProt P01861-1 221-327, looked up, name in EU numbering)
chain: GQPREPQVYTLPPSQETMTKNQVSLTCLVKGFYPSDIAVEWESNGQPENNYKTTPPVLDSDGSFFLYSRLTVDKSRWQEGNVFSCSVMHEALHNHYTQKSLSLSLGK
notes: range 341-447; As m7, with the mutation; also called G4-E357T; not shown: N-terminal 6 amino acid His tag
The protein B5 displayed a Kd in series [1] of 41000 nM. The fold-difference in series [4] turned out to be 0.0012 fold.

B6: CH2-CH3 fragment of human IgG1 with T350I (other, UniProt P01857-1 224-330, looked up, name in EU numbering)
chain: GQPREPQVYILPPSRDELTKNQVSLTCLVKGFYPSDIAVEWESNGQPENNYKTTPPVLDSDGSFFLYSKLTVDKSRWQQGNVFSCSVMHEALHNHYTQKSLSLSPGK
notes: range 341-447; As m1, with the mutation; also called G1-T350I; not shown: N-terminal 6 amino acid His tag
With B6, the Kd in series [1] was determined as 7 nM. Besides, in series [3], the fold-difference was 0.4 fold.

B7: CH2-CH3 fragment of wild type human IgG4 (other, UniProt P01861-1 221-327, looked up)
chain: GQPREPQVYTLPPSQEEMTKNQVSLTCLVKGFYPSDIAVEWESNGQPENNYKTTPPVLDSDGSFFLYSRLTVDKSRWQEGNVFSCSVMHEALHNHYTQKSLSLSLGK
notes: range 341-447; His-tagged fragment without hinge; the KD is its non-covalent self-association (CH3-CH3 homodimer); not shown: N-terminal 6 amino acid His tag
The protein B7 yielded a Kd in series [1] of 48 nM. Moreover, the fold-difference in series [4] turned out to be 1 fold.

B8: CH2-CH3 fragment of human IgG4 with F405A (other, UniProt P01861-1 221-327, looked up, name in EU numbering)
chain: GQPREPQVYTLPPSQEEMTKNQVSLTCLVKGFYPSDIAVEWESNGQPENNYKTTPPVLDSDGSFALYSRLTVDKSRWQEGNVFSCSVMHEALHNHYTQKSLSLSLGK
notes: range 341-447; As m7, with the mutation; also called G4-F405A; not shown: N-terminal 6 amino acid His tag
As to B8, the affinity in series [1], expressed as Kd, was 19000 nM. The fold-difference in series [4] is 0.0025 fold.

B9: CH2-CH3 fragment of human IgG4 with S364D (other, UniProt P01861-1 221-327, looked up, name in EU numbering)
chain: GQPREPQVYTLPPSQEEMTKNQVDLTCLVKGFYPSDIAVEWESNGQPENNYKTTPPVLDSDGSFFLYSRLTVDKSRWQEGNVFSCSVMHEALHNHYTQKSLSLSLGK
notes: range 341-447; As m7, with the mutation; also called G4-S364D; not shown: N-terminal 6 amino acid His tag
In series [1], B9 showed a dissociation constant (Kd) of 47 nM. Also, in series [4], the fold-difference was 1.02 fold.

B10: CH2-CH3 fragment of human IgG4 with R409T (other, UniProt P01861-1 221-327, looked up, name in EU numbering)
chain: GQPREPQVYTLPPSQEEMTKNQVSLTCLVKGFYPSDIAVEWESNGQPENNYKTTPPVLDSDGSFFLYSTLTVDKSRWQEGNVFSCSVMHEALHNHYTQKSLSLSLGK
notes: range 341-447; As m7, with the mutation; also called G4-R409T; not shown: N-terminal 6 amino acid His tag
In series [1], B10 displayed a Kd of 720 nM. Also, the fold-difference in series [4] stood at 0.07 fold.

B11: CH2-CH3 fragment of human IgG4 with L351K (other, UniProt P01861-1 221-327, looked up, name in EU numbering)
chain: GQPREPQVYTKPPSQEEMTKNQVSLTCLVKGFYPSDIAVEWESNGQPENNYKTTPPVLDSDGSFFLYSRLTVDKSRWQEGNVFSCSVMHEALHNHYTQKSLSLSLGK
notes: range 341-447; As m7, with the mutation; also called G4-L351K; not shown: N-terminal 6 amino acid His tag
Protein B11 displayed a Kd in series [1] of 740 nM. For the same protein, the fold-difference in series [4] worked out at 0.06 fold.

B12: CH2-CH3 fragment of human IgG4 with R409W (other, UniProt P01861-1 221-327, looked up, name in EU numbering)
chain: GQPREPQVYTLPPSQEEMTKNQVSLTCLVKGFYPSDIAVEWESNGQPENNYKTTPPVLDSDGSFFLYSWLTVDKSRWQEGNVFSCSVMHEALHNHYTQKSLSLSLGK
notes: range 341-447; As m7, with the mutation; also called G4-R409W; not shown: N-terminal 6 amino acid His tag
Regarding B12, the dissociation constant Kd in series [1] came out at 34000 nM. Further, the fold-difference in series [4] stood at 0.0014 fold.

B13: CH2-CH3 fragment of human IgG4 with R409A (other, UniProt P01861-1 221-327, looked up, name in EU numbering)
chain: GQPREPQVYTLPPSQEEMTKNQVSLTCLVKGFYPSDIAVEWESNGQPENNYKTTPPVLDSDGSFFLYSALTVDKSRWQEGNVFSCSVMHEALHNHYTQKSLSLSLGK
notes: range 341-447; As m7, with the mutation; also called G4-R409A; not shown: N-terminal 6 amino acid His tag
The protein B13 displayed a dissociation constant Kd in series [1] of 160 nM. Also, the fold-difference in series [4] amounted to 0.3 fold.

B14: CH2-CH3 fragment of human IgG4 with R409M (other, UniProt P01861-1 221-327, looked up, name in EU numbering)
chain: GQPREPQVYTLPPSQEEMTKNQVSLTCLVKGFYPSDIAVEWESNGQPENNYKTTPPVLDSDGSFFLYSMLTVDKSRWQEGNVFSCSVMHEALHNHYTQKSLSLSLGK
notes: range 341-447; As m7, with the mutation; also called G4-R409M; not shown: N-terminal 6 amino acid His tag
In series [1], B14 gave a Kd of 3 nM. For the same protein, the fold-difference in series [4] came out at 16 fold.

B15: CH2-CH3 fragment of human IgG4 with R409L (other, UniProt P01861-1 221-327, looked up, name in EU numbering)
chain: GQPREPQVYTLPPSQEEMTKNQVSLTCLVKGFYPSDIAVEWESNGQPENNYKTTPPVLDSDGSFFLYSLLTVDKSRWQEGNVFSCSVMHEALHNHYTQKSLSLSLGK
notes: range 341-447; As m7, with the mutation; also called G4-R409L; not shown: N-terminal 6 amino acid His tag
The protein B15 had an equilibrium dissociation constant (Kd) in series [1] of 15 nM. In series [4], the fold-difference was found to be 3.2 fold.

B16: CH2-CH3 fragment of human IgG4 with R409K (other, UniProt P01861-1 221-327, looked up, name in EU numbering)
chain: GQPREPQVYTLPPSQEEMTKNQVSLTCLVKGFYPSDIAVEWESNGQPENNYKTTPPVLDSDGSFFLYSKLTVDKSRWQEGNVFSCSVMHEALHNHYTQKSLSLSLGK
notes: range 341-447; As m7, with the mutation; also called G4-R409K; not shown: N-terminal 6 amino acid His tag
The protein B16 came in with a Kd in series [1] of 8 nM. The fold-difference in series [4] worked out at 6 fold.

B17: CH2-CH3 fragment of human IgG4 with K370Q (other, UniProt P01861-1 221-327, looked up, name in EU numbering)
chain: GQPREPQVYTLPPSQEEMTKNQVSLTCLVQGFYPSDIAVEWESNGQPENNYKTTPPVLDSDGSFFLYSRLTVDKSRWQEGNVFSCSVMHEALHNHYTQKSLSLSLGK
notes: range 341-447; As m7, with the mutation; also called G4-K370Q; not shown: N-terminal 6 amino acid His tag
Regarding B17, the equilibrium dissociation constant (Kd) in series [1] was found to be 11 nM. Moreover, in series [4], the fold-difference was 4.3 fold.

B18: CH2-CH3 fragment of human IgG1 with K370T (other, UniProt P01857-1 224-330, looked up, name in EU numbering)
chain: GQPREPQVYTLPPSRDELTKNQVSLTCLVTGFYPSDIAVEWESNGQPENNYKTTPPVLDSDGSFFLYSKLTVDKSRWQQGNVFSCSVMHEALHNHYTQKSLSLSPGK
notes: range 341-447; As m1, with the mutation; also called G1-K370T; not shown: N-terminal 6 amino acid His tag
As for B18, in series [1], the Kd is 45 nM. In series [3], the fold-difference was 0.07 fold.

B19: CH2-CH3 fragment of human IgG1 with T350I-K370T-F405L (other, UniProt P01857-1 224-330, looked up, name in EU numbering)
chain: GQPREPQVYILPPSRDELTKNQVSLTCLVTGFYPSDIAVEWESNGQPENNYKTTPPVLDSDGSFLLYSKLTVDKSRWQQGNVFSCSVMHEALHNHYTQKSLSLSPGK
notes: range 341-447; also called G1-ITL; not shown: N-terminal 6 amino acid His tag
Turning to B19, the figures for the Kd in series [1] and in series [2] were 1000 nM and 1200 nM, respectively. For the same protein, the fold-difference in series [3] was determined as 0.003 fold.
